Experimental findings from patent publication US20130296247A1 are described below.

Test in all cases: cell-based or functional assay
Experiment [1] has as its target Nav1.2 sodium channel (rBIIa) (UniProt P04775).
The target in experiment [2] is human Nav1.7 sodium channel alpha subunit (human) (UniProt Q15858).
Experiment [3] has as its target Nav1.2 sodium channel (rBIIa), P04775.

human Nav1.7 sodium channel alpha subunit (human), sequence (Q15858 whole entry): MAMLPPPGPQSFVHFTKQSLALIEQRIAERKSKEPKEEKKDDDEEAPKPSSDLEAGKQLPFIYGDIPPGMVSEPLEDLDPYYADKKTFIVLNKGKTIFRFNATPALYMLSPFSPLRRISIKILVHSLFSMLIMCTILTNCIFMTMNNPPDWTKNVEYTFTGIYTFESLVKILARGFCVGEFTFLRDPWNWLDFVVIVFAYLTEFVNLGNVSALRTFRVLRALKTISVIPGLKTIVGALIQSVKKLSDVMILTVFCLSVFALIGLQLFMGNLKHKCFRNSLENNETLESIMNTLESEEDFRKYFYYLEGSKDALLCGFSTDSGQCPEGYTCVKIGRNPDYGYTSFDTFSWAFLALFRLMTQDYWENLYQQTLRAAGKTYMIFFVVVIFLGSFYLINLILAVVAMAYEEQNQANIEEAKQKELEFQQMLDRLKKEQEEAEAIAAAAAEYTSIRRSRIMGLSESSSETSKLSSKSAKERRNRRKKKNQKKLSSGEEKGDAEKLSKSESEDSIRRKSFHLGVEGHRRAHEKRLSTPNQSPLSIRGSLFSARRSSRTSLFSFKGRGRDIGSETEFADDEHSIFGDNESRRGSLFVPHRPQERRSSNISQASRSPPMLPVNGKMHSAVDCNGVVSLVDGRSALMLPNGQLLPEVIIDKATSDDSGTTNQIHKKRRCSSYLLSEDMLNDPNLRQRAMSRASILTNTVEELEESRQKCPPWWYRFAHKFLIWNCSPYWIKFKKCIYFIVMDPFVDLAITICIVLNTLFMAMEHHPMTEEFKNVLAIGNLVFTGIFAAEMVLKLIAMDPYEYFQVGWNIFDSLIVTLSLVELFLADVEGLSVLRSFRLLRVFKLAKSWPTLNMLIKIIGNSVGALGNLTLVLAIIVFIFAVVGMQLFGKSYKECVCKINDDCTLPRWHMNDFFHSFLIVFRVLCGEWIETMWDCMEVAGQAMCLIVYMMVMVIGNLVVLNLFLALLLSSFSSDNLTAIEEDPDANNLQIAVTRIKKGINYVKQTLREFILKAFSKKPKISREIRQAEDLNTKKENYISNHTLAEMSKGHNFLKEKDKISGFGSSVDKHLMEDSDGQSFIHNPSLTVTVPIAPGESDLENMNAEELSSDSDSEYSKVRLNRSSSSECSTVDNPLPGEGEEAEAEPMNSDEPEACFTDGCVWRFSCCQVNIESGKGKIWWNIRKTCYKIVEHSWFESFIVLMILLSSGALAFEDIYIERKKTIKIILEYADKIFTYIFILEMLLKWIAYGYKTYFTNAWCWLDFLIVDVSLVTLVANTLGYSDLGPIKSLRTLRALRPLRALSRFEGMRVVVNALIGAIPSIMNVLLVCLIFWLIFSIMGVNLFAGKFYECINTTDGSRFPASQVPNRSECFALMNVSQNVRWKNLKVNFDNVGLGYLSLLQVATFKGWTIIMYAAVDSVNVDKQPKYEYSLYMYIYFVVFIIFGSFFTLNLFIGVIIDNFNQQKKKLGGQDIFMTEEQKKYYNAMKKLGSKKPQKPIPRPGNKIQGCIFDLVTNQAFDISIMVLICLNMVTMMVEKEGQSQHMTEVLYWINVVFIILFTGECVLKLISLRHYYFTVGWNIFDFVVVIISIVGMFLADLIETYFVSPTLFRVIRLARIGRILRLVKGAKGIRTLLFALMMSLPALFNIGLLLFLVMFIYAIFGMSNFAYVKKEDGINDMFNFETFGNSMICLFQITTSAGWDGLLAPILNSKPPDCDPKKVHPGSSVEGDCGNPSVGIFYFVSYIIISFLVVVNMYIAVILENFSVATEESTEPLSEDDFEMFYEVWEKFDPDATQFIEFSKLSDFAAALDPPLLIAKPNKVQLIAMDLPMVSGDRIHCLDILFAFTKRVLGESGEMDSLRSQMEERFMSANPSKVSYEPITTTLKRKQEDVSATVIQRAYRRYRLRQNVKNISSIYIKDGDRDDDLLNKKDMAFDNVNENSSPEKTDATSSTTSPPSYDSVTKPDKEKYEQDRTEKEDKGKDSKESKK

In turn, GrTx I (peptide) gave an IC50 Nav1.2 in experiment [1] of 2690 nM. The IC50 Nav1.7 in experiment [2] was determined as 1010 nM.

Molecule GsMTx II/PaTX II (peptide) came in with an IC50 Nav1.2 in experiment [1] of 2700 nM. The same molecule had an IC50 Nav1.7 in experiment [2] of 260 nM.

In the case of VsTx II (peptide), the IC50 Nav1.2 in experiment [1] worked out at 42400 nM. The IC50 Nav1.7 in experiment [2] is 9260 nM.

For JzTx V (peptide), the IC50 Nav1.2 in experiment [1] was 157 nM. Further, the IC50 Nav1.7 in experiment [2] was found to be 14 nM.

The molecule GsAF II (peptide) came in with an IC50 Nav1.2 in experiment [1] of 410 nM. Moreover, in experiment [2], the IC50 Nav1.7 is 70 nM.

Consider GsAF I (peptide), for which the IC50 Nav1.2 in experiment [1] was 255 nM. The molecule also displayed an IC50 Nav1.7 in experiment [2] of 249 nM.

For JzTx XII (peptide), the IC50 Nav1.2 in experiment [1] is 73900 nM.

Phrixotoxin I (peptide) had an IC50 Nav1.2 in experiment [1] of 5000 nM.

B1: peptide of SEQ ID NO: 2 (peptide)
peptide: YCQKWMWTCDSERKCCEGMVCRLWCKKKLW
modifications: not checked
For B1, the IC50 Nav1.2 in experiment [3] amounted to 8 nM.
